Data: the supplement of paper PMC7877785
± gives the uncertainty stated by the source.

Assay: self-splicing fitness, log relative to wild type (ln ratio); higher = more splicing; Tetrahymena group I intron in knt gene, E. coli kanamycin selection, DiMSum; sequences stand for … in CUCUCU…GGAGGGAAAAGUUAUCAGGCAUGCACCUGGUAGCUAGUCUUUAAACCAAUAGAUUGCAUCGGUUUAAAAGGCAAGACCGUCAAAUUGCGGGAAAGGGGUCAACAGCCGUUCAGUACCAAGUCUCAGGGGAAACUUUGAGAUGGCCUUGCAAAGGGUAUGGUAAUAAGCUGACGGACAUGGUCCUAACCACGCAGCCAAGUCCUAAGUCAACAGAUCUUCUGUUGAUAUGGAUGCAGUUCACAGACUAAAUGUCGGUCGGGGAAGAUGUAUUCUUCUCAUAAGAUAUAGUCGGACCUCUCCUUAAUGGGAGCUAGCGGAUGAAGUGAUGCAACACUGGAGCCGCUGGGAACUAAUUUGUAUGCGAAAGUAUAUUGAUUAGUUUUGGAGUACUCGUGGUCG
In short: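 The eight P1ex-region nucleotides of an intron in the knt kanamycin-resistance gene on pET-22b(+) were all randomised and the library put into E. coli BL21(DE3). Six replicate transformations were grown overnight at 37°C or 30°C on LB agar with or without 25 μg/mL kanamycin, together with 100 μg/mL carbenicillin, 50 μM IPTG and 0.2% rhamnose. Colonies were pooled and amplicon-sequenced on an Illumina HiSeq 2500. Fitness from DiMSum is the error-weighted combination of wild-type-normalised replicate fold changes, kanamycin over none.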

Row | Sequence | self-splicing fitness (ln) (30 °C) | self-splicing fitness (ln) (37 °C)
1 | UUACAGCAAUAUUACGCUCC | -1.45 ± 0.24 | -1.3 ± 0.24
2 | GGGAAGCAAUAUUACGCGAC | -2.77 ± 0.37 | -1.5 ± 0.32
3 | GGUAAGCAAUAUUACGAAAG | -3.68 ± 0.47 | 
4 | UAUCAGCAAUAUUACGUCGG | -1.02 ± 0.064 | 0.0416 ± 0.082
5 | GCGCAGCAAUAUUACGGAGU | -2 ± 0.11 | -0.744 ± 0.13
6 | UUUAAGCAAUAUUACGGACU | -1.59 ± 0.14 | -0.921 ± 0.13
7 | CUCAAGCAAUAUUACGCGGG | -3.15 ± 0.25 | -2.42 ± 0.25
8 | UGGUAGCAAUAUUACGUAUU | -3.07 ± 0.14 | -1.84 ± 0.17
9 | GCCAAGCAAUAUUACGUGCC | -3.36 ± 0.25 | -0.392 ± 0.17
10 | AUUUAGCAAUAUUACGCAUG | -1.05 ± 0.12 | -0.777 ± 0.18
11 | GUGAAGCAAUAUUACGUAUC | -1.08 ± 0.059 | 0.384 ± 0.068
12 | GGCUAGCAAUAUUACGAGCG | -1.17 ± 0.14 | -0.288 ± 0.17
13 | ACCGAGCAAUAUUACGUAAA | -4.22 ± 0.29 | -1.66 ± 0.19
14 | GCUCAGCAAUAUUACGUAUC | -0.849 ± 0.078 | 0.011 ± 0.077
15 | ACUUAGCAAUAUUACGCUUA | -1.26 ± 0.15 | -1.75 ± 0.21
16 | CGAAAGCAAUAUUACGAAGG | -1.05 ± 0.11 | -1.03 ± 0.16
17 | GGACAGCAAUAUUACGAAAC | -0.691 ± 0.12 | -0.624 ± 0.2
18 | AUAGAGCAAUAUUACGUAGA | -3.41 ± 0.25 | -2.52 ± 0.24
19 | UUUUAGCAAUAUUACGGGAU | -3.93 ± 0.32 | -1.48 ± 0.17
20 | ACGUAGCAAUAUUACGAACU | -0.677 ± 0.059 | -0.266 ± 0.082
21 | CUUCAGCAAUAUUACGAACG | -0.295 ± 0.062 | 0.406 ± 0.093
22 | UUUAAGCAAUAUUACGGCUC | -1.82 ± 0.17 | -0.633 ± 0.2
23 | UUCUAGCAAUAUUACGAUGU | -3.53 ± 0.42 | -1.66 ± 0.2
24 | CAUAAGCAAUAUUACGACAC | -2.18 ± 0.15 | -2.12 ± 0.27

Row | Sequence | self-splicing fitness (ln) (30 °C) | self-splicing fitness (ln) (37 °C)
25 | GGGGAGCAAUAUUACGUGCG | -1.61 ± 0.14 | -1.54 ± 0.27
26 | ACCAAGCAAUAUUACGUAAC | -3.94 ± 0.17 | -2.19 ± 0.16
27 | AUAUAGCAAUAUUACGGUCA | -1.16 ± 0.23 | -0.947 ± 0.19
28 | UCGGAGCAAUAUUACGGAUA | -2.51 ± 0.35 | -1.96 ± 0.29
29 | GCGGAGCAAUAUUACGAUGC | -1.81 ± 0.37 | 
30 | UUCAAGCAAUAUUACGGAGC | -2.66 ± 0.28 | -1.8 ± 0.23
31 | GCAGAGCAAUAUUACGGUUU | -2.82 ± 0.17 | -2.08 ± 0.15
32 | UCACAGCAAUAUUACGUUUA | -2.53 ± 0.13 | -0.819 ± 0.082
33 | ACCCAGCAAUAUUACGGUCC | -1.61 ± 0.085 | -1.4 ± 0.12
34 | CACGAGCAAUAUUACGCCGC | -2.93 ± 0.35 | -1.33 ± 0.48
35 | CAGCAGCAAUAUUACGCAAC | -3.45 ± 0.28 | -1.37 ± 0.25
36 | GCGCAGCAAUAUUACGCAUA | -0.539 ± 0.1 | -0.285 ± 0.1
37 | UCCCAGCAAUAUUACGACGA | -0.00629 ± 0.056 | 0.0828 ± 0.065
38 | AGAGAGCAAUAUUACGGUCC | -2.21 ± 0.3 | -0.974 ± 0.46
39 | GGGCAGCAAUAUUACGGUUU | -0.465 ± 0.065 | -0.681 ± 0.071
40 | CCUCAGCAAUAUUACGAAAA | -2.77 ± 0.22 | -2.26 ± 0.33
41 | UGGGAGCAAUAUUACGCGUG | -2.51 ± 0.12 | -1.67 ± 0.12
42 | GAGUAGCAAUAUUACGAGUU | -2.27 ± 0.095 | -0.98 ± 0.1
43 | CCCAAGCAAUAUUACGAGGA | -1.42 ± 0.078 | -0.592 ± 0.074
44 | GCUCAGCAAUAUUACGAUCG | -1.02 ± 0.1 | 0.77 ± 0.13
45 | GCGUAGCAAUAUUACGCGAC | -2.5 ± 0.11 | -1.42 ± 0.12
46 | CGCGAGCAAUAUUACGCCUC | -1.53 ± 0.44 | -1.38 ± 0.43
47 | AUAAAGCAAUAUUACGCAGC | -3.55 ± 0.4 | -1.04 ± 0.28
48 | CAUUAGCAAUAUUACGUUGC | -3.96 ± 0.19 | -2.8 ± 0.19

Row | Sequence | self-splicing fitness (ln) (30 °C) | self-splicing fitness (ln) (37 °C)
49 | GUACAGCAAUAUUACGUGAU | -2.88 ± 0.07 | -0.556 ± 0.07
50 | GCUCAGCAAUAUUACGCUAU | -1.61 ± 0.11 | -0.658 ± 0.097
51 | CUUUAGCAAUAUUACGCCCA | -2.92 ± 0.48 | -1.54 ± 0.38
52 | CUCCAGCAAUAUUACGCCCU | -3.46 ± 0.34 | -2 ± 0.26
53 | AACGAGCAAUAUUACGAUCA | -2.1 ± 0.21 | -1.41 ± 0.21
54 | UUAGAGCAAUAUUACGCCUG | -0.457 ± 0.11 | 0.235 ± 0.18
55 | AAUAAGCAAUAUUACGGUCU | -0.462 ± 0.055 | 0.0374 ± 0.073
56 | GGAUAGCAAUAUUACGUCUC | -2.52 ± 0.25 | -2.16 ± 0.46
57 | CAAAAGCAAUAUUACGGUUG | -1.66 ± 0.11 | -1.17 ± 0.14
58 | AAGGAGCAAUAUUACGUUUU | -3.02 ± 0.22 | -1.94 ± 0.2
59 | CAGCAGCAAUAUUACGUUCA | -2.17 ± 0.2 | -0.173 ± 0.17
60 | UACGAGCAAUAUUACGUAAA | -3.61 ± 0.29 | -2.84 ± 0.26
61 | GUCCAGCAAUAUUACGCACG | -2.07 ± 0.21 | -0.825 ± 0.13
62 | GGCGAGCAAUAUUACGUAGU | -1.57 ± 0.13 | -0.422 ± 0.14
63 | ACUGAGCAAUAUUACGGAGA | -3.46 ± 0.21 | -3.08 ± 0.27
64 | GCUGAGCAAUAUUACGCUUU | -2.42 ± 0.12 | -2.33 ± 0.18
65 | UGUCAGCAAUAUUACGACUG | -0.284 ± 0.1 | 0.525 ± 0.13
66 | GCAUAGCAAUAUUACGCGCU |  | -2.39 ± 0.31
67 | UAUGAGCAAUAUUACGUAUG | -2.35 ± 0.22 | -1.58 ± 0.27
68 | GAAAAGCAAUAUUACGCCAA | -2.24 ± 0.12 | -1.36 ± 0.12
69 | CGUGAGCAAUAUUACGUAGU | -4.5 ± 0.36 | -2.19 ± 0.2
70 | CCUGAGCAAUAUUACGUAGC | -4.49 ± 0.27 | -1.77 ± 0.16
71 | CGCCAGCAAUAUUACGCACG | -1.66 ± 0.11 | -1.47 ± 0.17
72 | GAACAGCAAUAUUACGUCAG | -2.51 ± 0.21 | -3.2 ± 0.36

Row | Sequence | self-splicing fitness (ln) (30 °C) | self-splicing fitness (ln) (37 °C)
73 | GGAUAGCAAUAUUACGUCUG | -0.225 ± 0.061 | -0.0327 ± 0.088
74 | AGUGAGCAAUAUUACGUCAG | -3 ± 0.21 | -2.56 ± 0.23
75 | CGGUAGCAAUAUUACGUGGU | -3.17 ± 0.21 | -2.3 ± 0.21
76 | UCGUAGCAAUAUUACGCUUC | -3.12 ± 0.48 | 
77 | CAGUAGCAAUAUUACGAGGC | -3.19 ± 0.17 | -2.94 ± 0.3
78 | AUCAAGCAAUAUUACGGUAU | -1.93 ± 0.063 | -0.833 ± 0.077
79 | CAAAAGCAAUAUUACGAGCU | -3.99 ± 0.21 | -1.96 ± 0.13
80 | AGGUAGCAAUAUUACGGAAG | -3.612 ± 0.031 | -2.5 ± 0.04
81 | GGGUAGCAAUAUUACGGUAC | -2.04 ± 0.12 | -0.23 ± 0.15
82 | ACUCAGCAAUAUUACGUGAC | -3.15 ± 0.14 | -0.561 ± 0.11
83 | GGUCAGCAAUAUUACGCUAG | -3.43 ± 0.26 | -2.91 ± 0.34
84 | GUGCAGCAAUAUUACGAGAU | -3.67 ± 0.2 | -1.98 ± 0.19
85 | UUAGAGCAAUAUUACGAUCU | -2.45 ± 0.24 | -3.11 ± 0.3
86 | UGGGAGCAAUAUUACGCUAA | -2.74 ± 0.29 | -1.93 ± 0.31
87 | CUCGAGCAAUAUUACGUCGG | -1.37 ± 0.15 | -0.674 ± 0.21
88 | GGGCAGCAAUAUUACGGUUA | -0.537 ± 0.097 | -0.339 ± 0.089
89 | CCCGAGCAAUAUUACGCGUC | -5.24 ± 0.32 | -2.91 ± 0.23
90 | CCUUAGCAAUAUUACGGUCC | -3.5 ± 0.46 | -3.04 ± 0.35
91 | GUGAAGCAAUAUUACGGCGC | -0.501 ± 0.17 | -0.89 ± 0.14
92 | GUUGAGCAAUAUUACGGGAU | -3.14 ± 0.15 | -1.96 ± 0.15
93 | GACGAGCAAUAUUACGAGGC | -3.33 ± 0.18 | -2.85 ± 0.29
94 | CCCUAGCAAUAUUACGUGGG | -3.48 ± 0.1 | -2.54 ± 0.14
95 | GCAAAGCAAUAUUACGCGUU | -1.96 ± 0.13 | -2.03 ± 0.2
96 | AGACAGCAAUAUUACGCUGC | -3.72 ± 0.2 | -2.64 ± 0.24
